Source: patent publication US8748176B2, “Generation of choroid plexus epithelial cells from human embryonic stem cells” (The Regents of the University of California, priority 2011, dated 2014)

B1: BMP4: Bone Morphogenetic Protein 4 (GeneID: 652), recombinant, commercially available (R&D Systems) (protein, UniProt P12644 293-408, looked up)
Bone morphogenetic protein 4: SPKHHSQRARKKNKNCRRHSLYVDFSDVGWNDWIVAPPGYQAFYCHGDCPFPLADHLNSTNHAIVQTLVNSVNSSIPKACCVPTELSAISMLYLDEYDKVVLKNYQEMVVEGCGCR

Key:
primary CPEC vesicles = assay: CPEC vesicle secretion assay with secretion inhibitors, primary CPECs; type: cell-based, mouse; details: 100 uM acetazolamide and 5 mM ouabain together, 24 hrs; regrew upon withdrawal
Source text: (§1) To assess functional activity, we adopted a well-established in vitro assay for CPEC vesicle formation and secretion (33, 34). As described previously using this assay, primary dissociated CPECs on Matrigel self-assembled into hollow vesicles that grew in diameter, collapsed after treatment with the secretion inhibitors acetazolamide and ouabain, and regrew upon inhibitor withdrawal (FIG. 5A-G). Indistinguishable vesicles formed from dissociated SFEBq aggregates treated with BMP4 (n=6/6 independent cultures), but not from controls (n=0/6; FIGS. 5H,I). Like the primary CPEC vesicles, the SFEBq-derived vesicles were Aqp1 positive (FIG. 5I, inset), grew (FIGS. 5J,K), collapsed after exposure to the secretion inhibitors (FIG. 5L), and recovered after inhibitor removal (FIG. 5M).
(§2) Primary CP cells or SFEBq-derived cells were cultured on Matrigel as previously described (33, 34). Briefly, Matrigel (BD Biosciences, San Jose, Calif.) was mixed 1:1 with DMEM (Invitrogen) and incubated for at least 30 min at 37 C. BMP4-treated SFEBq aggregates at 12 DIV were dissociated with TrypLE Express (Invitrogen) and plated at 500,000 to 600,000 cells/well onto Matrigel-coated 6-well plates in DMEM with 10% FBS, 2 mM L-glutamine, NEAA, and sodium pyruvate (Invitrogen). […]

SFEBq-derived vesicles = assay: CPEC vesicle secretion assay with secretion inhibitors, mESC-derived vesicles; type: cell-based, mouse; details: 100 uM acetazolamide and 5 mM ouabain together, 24 hrs; recovered after removal
Source text: as §1, §2

mESC-derived NECs = assay: BMP4 treatment of mESC-derived SFEBq aggregates, CPEC/NEC marker RT-qPCR; type: cell-based, mouse
Protocol: Significant and similar levels of CPEC gene induction were also seen with one-time BMP4 addition alone (data not shown). These findings indicate a relatively short and early critical period in culture for BMP4-mediated CPEC marker induction, which occurs at the expense of NEC markers.
(§3) These were performed as described (21, 26) on a StepOne Plus (Applied Biosystems, Carlsbad, Calif.) using 18S normalization and Excel for graphing and statistics (two-tailed t-tests assuming equal variance). All primers and amplicons were validated as described (21, 26). All studies represent n>2 biological replicates per condition, unless otherwise specified.
Neural differentiation was adapted from Eiraku et al. (29). Briefly, mESCs were passaged for two hours onto gelatin-coated plates to reduce MEF load, dissociated to single cells using trypsin, then plated at varying concentrations onto ultra-low attachment U-bottom 96-well plates (Corning #7007, Lowell, Mass.) to form SFEBq aggregates. Differentiation media (29) was replaced initially, then every other day, with fresh media containing 0.5 to 50 ng/ml BMP4 (R&D Systems). Neural rosette (NR) cultures were based on the Elkabetz et al. method (30). […] For the combined SFEBq/NR method, we first generated SFEBq aggregates for 5 DIV, then transferred aggregates into adherent mNR conditions for another 2 DIV (7 DIV total).

[1] = test system: mESC-derived NECs plated as adherent monolayers; assay: combined aggregation-monolayer system, CPEC markers by RT-qPCR and immunocytochemistry; type: cell-based, mouse
Protocol: In addition to direct BMP4 applications to SFEBq aggregates, we also dissociated SFEBq aggregates into single cells after 5DIV (i.e. after they had differentiated into NECs), plated them as adherent monolayers onto PDL-laminin-coated plates at 300,000-600,000 cells, then added BMP4 (0.5-50 ng/ml BMP4) for another 5 days (10DIV total). This combined aggregation-monolayer system allows all NECs to experience the same BMP4 concentration in culture. […] The optimal concentration of BMP4 is probably between 0.5 ng/ml-50 ng/ml BMP4 in this system.
as §3

[2] = test system: dissociated SFEBq aggregates; assay: in vitro assay for CPEC vesicle formation on Matrigel; type: cell-based, mouse; details: SFEBq aggregates treated with 50 ng/ml BMP4; controls n=0/6
Source text: as §1, §2

H1-derived NRs = assay: BMP4 addition to hESC-derived neural rosettes (NR method); type: cell-based, human; details: BMP4 0.5-15 ng/ml, evident by 7 DIV after addition
Source text: We then attempted to derive iCPECs from human ESCs using an analogous approach. To first generate NECs, we used the Zhang et al. method (35) to generate neural rosettes (NRs) (FIGS. 6A,B) with predominant forebrain character (30). […] Eventually, the hESC-derived vesicles transformed into flat epithelial sheets (FIG. 6D), and occasional multivesicular bodies also formed (FIG. 6E). […] H9 cultures yielded similar morphologic changes, although NR-to-vesicle transformations were less prominent.
1) Neural rosette (NR) method. Neural induction with NR formation was adapted from Zhang et al. (35). Human ESC colonies were partially dissociated with 1 mg/ml dispase, then plated in suspension to form embryoid bodies (EBs) for 3 DIV. EBs were then transferred to suspension culture with neural induction media—DMEM/F12 (Invitrogen), N2 (Invitrogen), NEAA, heparin (2 ug/ml) and FGF2 (20 ng/ml)—for another two days. On 6 DIV, EBs were transferred to adherent PDL/laminin-coated plates with neural induction media, which was fully replaced every other day. On 16 DIV, media was fully replaced with neural induction media containing BMP4 (0.5-15 ng/ml), with full media replacement every other day. […] The SFEBq media was changed every 3 days, with or without fresh BMP4, and the culture was analyzed after 1-2 weeks of BMP4 incubation, with greater CPEC differentiation detected at 2 weeks.

H9 hESC SFEBq aggregates = assay: BMP4 applied to H9 hESC SFEBq aggregates, CPEC marker expression; type: cell-based, human; details: BMP4 0-15 ng/ml, 18 to 24-DIV aggregates
Protocol: We also generated human CPECs by applying the SFEBq neural induction method to human ESCs (H9 line). H9 hESCs were optimized for aggregate size and assessed for NEC gene expression over time. 9000-cell SFEBq aggregates were optimal, and NEC expression plateaued by 18-24 DIV. BMP4 (0-15 ng/ml) was applied to 12-, 15-, 18-, 21-, and 24-DIV aggregates. […] Based on RT-qPCR studies, peak expression of NEC markers, but not radial glial markers, coincided with the 21 DIV aggregates.
1) Neural rosette (NR) method. Neural induction with NR formation was adapted from Zhang et al. (35). Human ESC colonies were partially dissociated with 1 mg/ml dispase, then plated in suspension to form embryoid bodies (EBs) for 3 DIV. EBs were then transferred to suspension culture with neural induction media—DMEM/F12 (Invitrogen), N2 (Invitrogen), NEAA, heparin (2 ug/ml) and FGF2 (20 ng/ml)—for another two days. On 6 DIV, EBs were transferred to adherent PDL/laminin-coated plates with neural induction media, which was fully replaced every other day. On 16 DIV, media was fully replaced with neural induction media containing BMP4 (0.5-15 ng/ml), with full media replacement every other day. 2) Aggregate (SFEBq) method. […] The SFEBq media was changed every 3 days, with or without fresh BMP4, and the culture was analyzed after 1-2 weeks of BMP4 incubation, with greater CPEC differentiation detected at 2 weeks.

Molecule	vesicle response to secretion inhibitors (primary CPEC vesicles)	vesicle response to secretion inhibitors (SFEBq-derived vesicles)	CPEC markers Ttr, Lmx1a, and Msx1 induction (mESC-derived NECs; 5-day aggregates, BMP4 5 or 50 ng/ml for 7 DIV)	CPEC markers Aqp1 and Cldn1 induction (mESC-derived NECs; 5-day aggregates, BMP4 concentration-dependent)	NEC markers Sox1 and Foxg1 expression (mESC-derived NECs; with increasing BMP4 concentration)	CPEC markers by RT-qPCR at 50 ng/ml ([1]; 50 ng/ml BMP4)	optimal BMP4 concentration for CPEC marker upregulation ([1]; 0.5-50 ng/ml BMP4 for 5 days, 10DIV total)	independent cultures forming vesicles on Matrigel [2]	morphologic transformation of neural rosettes (H1-derived NRs)	CPEC markers Ttr, Otx2, and Lmx1a expression (H9 hESC SFEBq aggregates)
CC(=O)Nc1nnc(S(N)(=O)=O)s1 [acetazolamide]	collapsed	collapsed	–	–	–	–	–	–	–	–
C[C@@H]1O[C@@H](O[C@H]2C[C@@H](O)[C@]3(CO)[C@H]4[C@H](O)C[C@]5(C)[C@@H](C6=CC(=O)OC6)CC[C@]5(O)[C@@H]4CC[C@]3(O)C2)[C@H](O)[C@H](O)[C@H]1O [ouabain]	collapsed	collapsed	–	–	–	–	–	–	–	–
B1	–	–	markedly induced	strongly induced	downregulated	down-regulation of CPEC markers	5 ng/mL	6/6	transformed directly into expanding vesicular structures	upregulated
